# Test results: paper PMC11563869
# Legend:
# [1] = molecular target: GluA2-γ2_(FRET) (GluA2_(FRET) fused through a GGS linker to full-length mouse TARPγ2) (rat | mouse) (UniProt O88602); experiment: FRET or BRET; single-molecule FRET between Alexa-555 and Alexa-647 on Cys467 of two subunits; receptors from detergent-solubilised HEK293T cells held on the slide by antibody (in situ immunoprecipitation); 1 mM Glu + 100 µM CTZ
# [2] = molecular target: GluA2-γ2_(FRET) (GluA2_(FRET) fused through a GGS linker to full-length mouse TARPγ2) (rat | mouse) (UniProt O88602); experiment: FRET or BRET; single-molecule FRET between Alexa-555 and Alexa-647 on Cys467 of two subunits; receptors from detergent-solubilised HEK293T cells held on the slide by antibody (in situ immunoprecipitation); 1 mM Glu + 100 µM GYKI-52466
substance,measurement,setting,value
GluA2-γ2_(FRET) (GluA2_(FRET) fused through a GGS linker to full-length mouse TARPγ2) (from UniProt O88602 1-323) (receptor),"FRET efficiency (highest-occurring state, with CTZ)",[1],0.93
same,"FRET efficiency (highest-occurring state, with GYKI-52466)",[2],0.82
